From patent EP4616869A1, “FAP TARGETED ANTIBODY-DRUG CONJUGATES” (Oncomatryx Biopharma, S.L., priority 2024, dated 2025)
Like-named read-outs stand apart in the source and are kept apart here. Non-standard residues stand in square brackets, D forms with d. Residues, ends and D or L forms follow the SMILES beside them. *: point of attachment. Dolaproine = CO[C@@H]([C@@H]1CCCN1)[C@@H](C)C(=O)O; Dil = CC[C@H](C)[C@H](NC)[C@@H](CC(=O)O)OC; X1 = C[C@@H](N*)[C@@H](O)c1ccccc1; NMeV = CN[C@H](C(=O)O)C(C)C

Columns and labels:
[1] = target: Fibroblast activation protein (FAP) on FAP-expressing HT1080-FAP cells (UniProt Q12884); test: flow cytometry on HT1080-FAP cells, PE-labeled anti-human Fc secondary antibody, MFI
[2] = target: Fibroblast activation protein (FAP) on FAP-expressing HT1080-FAP cells (UniProt Q12884); test: cell-based or functional assay
[3] = test system: HCT116 (low Pgp expression); test: Cell viability assay (crystal violet staining), payloads, HCT116; type: cell-based; details: HCT116, 48 hours incubation
Description: (§1) The cytotoxic activity of A1B1 cytolysin and MMAE payloads was analyzed via cell-viability assay using the colorectal cancer cell lines HCT15 (high Pgp expression) and HCT116 (low Pgp expression). The day before the assay, cells were seeded and cultivated overnight at 37 °C. Titration of the payloads diluted in medium was added to the cells and incubated for 48 hours at 37 °C. Finally, cell viability was analyzed by crystal violet staining.

[4] = test system: HCT15 (high Pgp expression); test: Cell viability assay (crystal violet staining), payloads, HCT15; type: cell-based; details: HCT15, 48 hours incubation, read-out: IC 50 HCT15
Description: as §1

[5] = target: T1, Fibroblast activation protein (FAP) on FAP-expressing HT1080-FAP cells (UniProt Q12884 1-760, limits assumed); test: flow cytometry on HT1080-FAP cells, PE-labeled anti-human Fc secondary antibody, MFI
T1 construct: whole, on cells; also called FAPα
T1 sequence (looked up): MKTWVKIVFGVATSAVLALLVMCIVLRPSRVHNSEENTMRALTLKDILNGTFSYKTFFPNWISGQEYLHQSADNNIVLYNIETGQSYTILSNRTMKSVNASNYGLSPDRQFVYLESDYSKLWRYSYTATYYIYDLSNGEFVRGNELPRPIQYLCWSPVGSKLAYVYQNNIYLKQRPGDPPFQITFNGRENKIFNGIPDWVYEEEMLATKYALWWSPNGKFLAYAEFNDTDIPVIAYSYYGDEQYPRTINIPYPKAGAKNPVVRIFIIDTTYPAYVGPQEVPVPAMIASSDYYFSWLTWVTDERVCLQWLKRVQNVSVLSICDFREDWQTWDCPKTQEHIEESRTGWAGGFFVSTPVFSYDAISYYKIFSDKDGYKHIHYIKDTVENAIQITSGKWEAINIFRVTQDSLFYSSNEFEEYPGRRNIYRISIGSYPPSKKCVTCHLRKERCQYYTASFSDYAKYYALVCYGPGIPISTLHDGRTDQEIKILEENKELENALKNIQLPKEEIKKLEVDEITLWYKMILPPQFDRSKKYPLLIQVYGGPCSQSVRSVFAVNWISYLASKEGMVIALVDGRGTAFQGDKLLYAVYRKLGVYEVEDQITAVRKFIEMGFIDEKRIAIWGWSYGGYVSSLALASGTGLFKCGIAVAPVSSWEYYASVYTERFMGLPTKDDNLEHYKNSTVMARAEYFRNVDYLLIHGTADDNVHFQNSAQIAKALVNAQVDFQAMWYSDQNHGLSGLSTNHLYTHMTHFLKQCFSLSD

[6] = target: T1, Fibroblast activation protein (FAP) on …; test: cell-based or functional assay
[7] = test system: Panc007 pancreatic ductal adenocarcinoma patient derived xenograft; test: In vivo efficacy and tolerability in the Panc007 patient-derived xenograft model; set-up: species or system female Athymic nude-Foxn1 (nude/nude) mice; details: for TGI value: day 28
Description: The antitumor activity of OMTX105 vs OMTX705 was evaluated in the Panc007 pancreatic ductal adenocarcinoma patient derived xenograft mode in female Athymic nude-Foxn1 (nude/nude) mice.
Both OMTX105 and OMTX705 were administered intravenously at 5 and 20 mg/kg once a week for 4 weeks.

[8] = test system: HT1080-FAP transfected cells; test: In vivo efficacy and tolerability in the HT1080-FAP tumor model with huPBMCs; set-up: species or system female NOD scid gamma (NSG) mice
Description: To evaluate the in vivo efficacy of OMTX1 05 and OMTX705, both ADCs were tested in female NOD scid gamma (NSG) mice co-inoculated with HT1080-FAP transfected cells and huPBMCs.
After 7 days, mice were randomized according to tumor size in the different treatment groups. Treatments with OMTX105 and OMTX705 as single agents were initiated, both with a weekly intravenous dose of 20 mg/kg over 3 weeks.
Tumor volume and animal weight were measured 3 times a week to monitor the evolution of tumor growth and weight change upon treatment.

[9] = test system: HT1080-WT cells; test: ADC cytotoxic activity, cell viability assay, HT1080-WT; type: cell-based; details: read-out: Concentration of half maximal killing HT1080 WT
Description: (§2) OMTX105 cytotoxic activity was analyzed via cell viability assay using HT1080-FAP and HT1080-WT cells. […] Here, a concentration of half-maximal killing of 64 pM for OMTX105 was determined compared to 750 pM for OMTX705. […] Specificity ratio between both cell lines was 1,205 for OMTX105 while for OMTX705 the value was 82 (Figure 3). Table 4: Comparative in vitro binding and cytotoxic activity values of OMTX105 and OMTX705 ADCs

[10] = test system: HT1080-FAP cells; test: ADC cytotoxic activity, cell viability assay, HT1080-FAP; type: cell-based
Description: as §2

[11] = 5 and 20 mg/kg intravenously once a week for 4 weeks
[12] = weekly intravenous dose of 20 mg/kg over 3 weeks

“OMTX705 antibody-drug conjugate (anti-FAP monoclonal antibody conjugated to a cytolysin payload)” was tested, and the EC50 [1] was 0.204 nM, the Concentration of half maximal killing, HT1080FAP (cell viability assay) [2] was 750 pM and the Specificity ratio between HT1080WT and HT1080FAP (cell viability assay) [2] was 82.

CC[C@H](C)[C@@H]([C@@H](CC(=O)N1CCC[C@H]1[C@H](OC)[C@@H](C)C(=O)N[C@H](C)[C@@H](O)c1ccccc1)OC)N(C)C(=O)[C@@H](NC(=O)[C@@H](NC)C(C)C)C(C)C [MMAE, Monomethyl auristatin E] (H-[NMeV]V[Dil][Dolaproine]-X1) showed an IC50 [3] of 2.5 ± 0.4 nM, an IC50 ([3]; Homo sapiens, HCT-116, 48 h) of 3 nM and an IC50 [4] of 39.5 ± 10.1 nM. It also gave an IC50 ([4]; Homo sapiens, HCT-15, 48 h) of 40 nM.

B1: OMTX105 antibody-drug conjugate (anti-FAP IgG antibody conjugated with the drug-linker vcMMAE) (antibody, V domains shown)
VH: QVQLVQSGAEVKKPGASVKVSCKASGYTFTENIIHWVRQAPGQGLEWMGWFHPGSGSIKYNEKFKDRVTMTADTSTSTVYMELSSLRSEDTAVYYCARHGGTGRGAMDYWGQGTLVTVSS
VL: DIQMTQSPSSLSASVGDRVTITCRASKSVSTSAYSYMHWYQQKPGKAPKLLIYLASNLESGVPSRFSGSGSGTDFTLTISSLQPEDFATYYCQHSRELPYTFGQGTKLEIKR
modifications: drug-linker vcMMAE on cysteine residues of the antibody (non-site specific, thiol-based); DAR 3.92; the cysteines are not stated
notes: also called OMTX105 ADC; anti-FAP MMAE ADC
For B1, the EC50 [5] was 0.255 nM and the “Specificity ratio between HT1080WT and HT1080FAP (cell viability assay)” value [6] was 1200.

B2: OMTX105: anti-FAP IgG antibody conjugated with the drug-linker vcMMAE, through thiol-based reaction on the cysteine residues of the antibody (conjugate)
heavy: QVQLVQSGAEVKKPGASVKVSCKASGYTFTENIIHWVRQAPGQGLEWMGWFHPGSGSIKYNEKFKDRVTMTADTSTSTVYMELSSLRSEDTAVYYCARHGGTGRGAMDYWGQGTLVTVSSASTKGPSVFPLAPSSKSTSGGTAALGCLVKDYFPEPVTVSWNSGALTSGVHTFPAVLQSSGLYSLSSVVTVPSSSLGTQTYICNVNHKPSNTKVDKKVEPKSCDKTHTCPPCPAPPVAGPSVFLFPPKPKDTLMISRTPEVTCVVVDVSHEDPEVKFNWYVDGVEVHNAKTKPREEQYNSTYRVVSVLTVLHQDWLNGKEYKCKVSNKGLPSSIEKTISKAKGQPREPQVYTLPPSRDELTKNQVSLTCLVKGFYPSDIAVEWESNGQPENNYKTTPPVLDSDGSFFLYSKLTVDKSRWQQGNVFSCSVMHEALHNHYTQKSLSLSPGK
light: DIQMTQSPSSLSASVGDRVTITCRASKSVSTSAYSYMHWYQQKPGKAPKLLIYLASNLESGVPSRFSGSGSGTDFTLTISSLQPEDFATYYCQHSRELPYTFGQGTKLEIKRTVAAPSVFIFPPSDEQLKSGTASVVCLLNNFYPREAKVQWKVDNALQSGNSQESVTEQDSKDSTYSLSSTLTLSKADYEKHKVYACEVTHQGLSSPVTKSFNRGEC
With B2 the TGI value ([7]; 5 mg/kg intravenously once a week for 4 weeks) was 85%, the TGI value ([7]; 20 mg/kg intravenously once a week for 4 weeks) was 136% and the “adverse effects or animal death” value [7, 11] was “no adverse effects or animal death”. For the same molecule, the “tolerability (body weight data and clinical observations)” value [7, 11] was “well tolerated”, the weight loss ([7]; both 5 mg/kg and 20 mg/kg, after 56 days) was “no weight loss observed” and the tolerability ([8]; 20 mg/kg, 21-day test period) was “well tolerated”. The complete response [8, 12] was “complete response in this model at day 7”, the “percentage tumor growth inhibition (TGI)” value [8, 12] was 104.98% and the “weight loss, toxic effect” value ([8]; weekly intravenous dose of 20 mg/kg, 21-day test period) was “No weight loss, nor toxic effect”. For the same molecule, the EC50 [9] was 77.2 nM, the EC50 ([10]; HT1080-FAP cells, read-out: Concentration of half maximal killing HT1080FAP) was 0.064 ± 0.033 nM and the “Specificity ratio between HT1080WT and HT1080FAP” value ([10]; ratio of half maximal killing concentrations, HT1080-WT to HT1080-FAP) was 1,205.
